Response data for 2 substances are collected here from PMC5820281.

The target in test [1] is Renilla luciferase-IgG1 Fc fusion protein (Fc region of IgG1, amino acids 233–449). The test is described as follows: luciferase pull-down (bead-immobilized GST fusion protein, luciferase-tagged Fc-IgG). Particulars: parent: est. 240000; read off a plot.
Test [2] addresses GST-Ro52-Δ2 (C-terminal fragment of Ro52/TRIM21 fused to glutathione S-transferase) (UniProt P19474). Described as above. Particulars: read off a plot.
The target in test [3] is protein A/G (Ultralink protein A/G beads). The test is described as follows: luciferase pull-down (protein A/G beads, luciferase-tagged Fc-IgG). Conditions: read off a plot.

Chain of UniProt P19474 (P19474 277-475, stated change not applied): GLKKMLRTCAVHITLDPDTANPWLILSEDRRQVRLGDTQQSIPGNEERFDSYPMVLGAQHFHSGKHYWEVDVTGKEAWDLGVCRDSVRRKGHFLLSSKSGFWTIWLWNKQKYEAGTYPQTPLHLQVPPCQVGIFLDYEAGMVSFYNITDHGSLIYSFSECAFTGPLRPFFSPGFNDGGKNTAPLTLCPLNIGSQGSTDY

In the case of “GST-Ro52-Δ2 (C-terminal fragment of Ro52/TRIM21 fused to glutathione S-transferase) (from UniProt P19474) D355A”, the response in test [1] stood at 3900 LU. “Renilla luciferase-IgG1 Fc fusion protein (Fc region of IgG1, amino acids 233–449) H435del; N436del; H437del”: the response in test [2] came out at 4200 LU; in test [3] it was 3600 LU.
